In series [1] the target is T1, FAM-tagged two-repeat S2-phosphorylated CTD peptide.
T1 chain: YSPTSPSYSPTSPS
Description: fluorescence anisotropy (FA). As to conditions: chain shown with the change; read at the highest titration point, Seb1-CID 500 µM; parent: est. 110; read off a plot. (In general: Fluorescence polarisation rises when a labelled molecule tumbles more slowly, as on binding a larger partner.)

In series [2] the target is T2, FAM-tagged two-repeat S5-phosphorylated CTD peptide.
T2 chain: YSPTSPSYSPTSPS
Description: fluorescence anisotropy (FA). As to conditions: chain shown with the change; read at the highest titration point, Seb1-CID 500 µM; parent: est. 77; read off a plot.

Series [3] has as its target T3, FAM-tagged two-repeat non-phosphorylated CTD peptide.
T3 chain: YSPTSPSYSPTSPS
Kind of series: fluorescence anisotropy (FA). Particulars: chain shown with the change; read at the highest titration point, Seb1-CID 500 µM; parent: est. 44; read off a plot.

The target of series [4] is FAM-tagged two-repeat S2-phosphorylated CTD peptide. Kind of series: fluorescence polarisation; fluorescence anisotropy; Seb1-CID(1-152) titrated against 75 nM N-terminally FAM-tagged two-repeat CTD peptide; 25 mM HEPES pH 7.3, 200 mM NaCl, 1 mM EDTA; 25 °C.
In series [5] the target is FAM-tagged two-repeat S5-phosphorylated CTD peptide. Described as above.
In series [6] the target is FAM-tagged two-repeat S7-phosphorylated CTD peptide. The description is as above.
For another series, the target named is T4, Seb1-CID(1-152) (S. pombe, UniProt Q9UTE3 1-152).
T4 construct: The full-length parent construct in pET41a(+) has a C-terminal His8 tag; also called CID WT; source: E. coli Rosetta, purified (Ni-NTA, size-exclusion chromatography)
T4 sequence (looked up): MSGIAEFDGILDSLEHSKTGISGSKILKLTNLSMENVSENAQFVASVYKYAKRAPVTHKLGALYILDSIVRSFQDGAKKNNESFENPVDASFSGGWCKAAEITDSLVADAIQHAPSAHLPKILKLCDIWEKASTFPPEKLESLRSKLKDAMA
The description is as above. As to conditions: both partners purified.

The target of another series is T5, SUMO-RRM WT (Schizosaccharomyces pombe, UniProt Q9UTE3 388-540).
T5 sequence: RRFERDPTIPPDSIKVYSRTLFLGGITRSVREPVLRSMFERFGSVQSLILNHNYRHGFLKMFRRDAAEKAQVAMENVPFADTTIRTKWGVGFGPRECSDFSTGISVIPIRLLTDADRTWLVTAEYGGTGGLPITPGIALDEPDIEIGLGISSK
Kind of series: fluorescence anisotropy; 25 mM Tris-HCl pH 8.0, 100 mM NaCl, 2 mM MgCl2, 1 mM DTT, 16.7% glycerol, 0.1% IGEPAL, 0.1 mg/ml tRNA, 2.5% RNasin, 25 C, 40 nM FAM-RNA. As to conditions: protein: recombinant; tags: N-terminal His6-SUMO; single strand.

The next series deals with T6, SUMO-RRM F487A (Schizosaccharomyces pombe, UniProt Q9UTE3 388-540, F487A).
T6 sequence: T5 sequence with F100A
Described as above. Particulars: protein: recombinant; tags: N-terminal His6-SUMO; single strand.

The next series has as its target T7, SUMO-RRM R504E (Schizosaccharomyces pombe, UniProt Q9UTE3 388-540, R504E).
T7 sequence: T5 sequence with R117E
The description is as above. Particulars: protein: recombinant; tags: N-terminal His6-SUMO; single strand.

Another series addresses T8, SUMO-RRM R392E (Schizosaccharomyces pombe, UniProt Q9UTE3 388-540, R392E).
T8 sequence: T5 sequence with R5E
The description is as above. As to conditions: protein: recombinant; tags: N-terminal His6-SUMO; single strand.

For the next series, the target named is T9, SUMO-RRM F449A (Schizosaccharomyces pombe, UniProt Q9UTE3 388-540, F449A).
T9 sequence: T5 sequence with F62A
The series is described as above. Particulars: protein: recombinant; tags: N-terminal His6-SUMO; single strand.

In another series the target is T10, SUMO-RRM R428E (Schizosaccharomyces pombe, UniProt Q9UTE3 388-540, R428E).
T10 sequence: T5 sequence with R41E
The series is described as above. As to conditions: protein: recombinant; tags: N-terminal His6-SUMO; single strand.

The next series concerns the target T11, SUMO-RRM K402A (Schizosaccharomyces pombe, UniProt Q9UTE3 388-540, K402A).
T11 sequence: T5 sequence with K15A
The series is described as above. As to conditions: protein: recombinant; tags: N-terminal His6-SUMO; single strand.

Series [7] deals with T12, Seb1-RRM388-540 (tag cleaved) (Schizosaccharomyces pombe, UniProt Q9UTE3 388-540).
T12 sequence: T5 sequence
Described as above. Particulars: protein: recombinant; tags: His6-SUMO removed with 3C protease; single strand.

Another series deals with T13, SUMO-RRM R450A (Schizosaccharomyces pombe, UniProt Q9UTE3 388-540, R450A).
T13 sequence: T5 sequence with R63A
The description is as above. Particulars: protein: recombinant; tags: N-terminal His6-SUMO; single strand.

The next series has as its target T14, SUMO-RRM S492A (Schizosaccharomyces pombe, UniProt Q9UTE3 388-540, S492A).
T14 sequence: T5 sequence with S105A
Description: fluorescence anisotropy; text: mild effect on binding; 25 mM Tris-HCl pH 8.0, 100 mM NaCl, 2 mM MgCl2, 1 mM DTT, 16.7% glycerol, 0.1% IGEPAL, 0.1 mg/ml tRNA, 2.5% RNasin, 25 C, 40 nM FAM-RNA. As to conditions: protein: recombinant; tags: N-terminal His6-SUMO; single strand.

A further series concerns the target T15, SUMO-RRM R472E (Schizosaccharomyces pombe, UniProt Q9UTE3 388-540, R472E).
T15 sequence: T5 sequence with R85E
Description: fluorescence anisotropy; text: completely abolishes RNA binding; fitted Kd error exceeds value; 25 mM Tris-HCl pH 8.0, 100 mM NaCl, 2 mM MgCl2, 1 mM DTT, 16.7% glycerol, 0.1% IGEPAL, 0.1 mg/ml tRNA, 2.5% RNasin, 25 C, 40 nM FAM-RNA. Particulars: protein: recombinant; tags: N-terminal His6-SUMO; single strand.

This is an account of results in paper PMC5382271, “The conserved protein Seb1 drives transcription termination by binding RNA polymerase II and nascent RNA” (Nature Communications, 2017).

Where a chain is given by its changes, count along the chain named. Names may count otherwise. Where no end group is shown, it is not given here. FAM = 5'-fluorescein amidite

B1: Seb1-CID(1-152), Q9UTE3 K121E (protein)
chain: T4 sequence (looked up) with K121E
For the molecule B1, the response in series [1] amounted to 47; in series [2], 47; in [3], 34.

B2: Seb1-CID(1-152) (domain or fragment)
chain: T4 sequence (looked up)
The Kd is the free concentration of one partner at which half of the binding sites on the other are occupied at equilibrium, for simple one-to-one binding. With B2, the results for the Kd in [4], in [5] and in series [6] were 23.4 µM, 83.7 µM and 242 µM, respectively.

B3: Seb1-CID(1-152), Q9UTE3 S22D; K25E (protein)
chain: T4 sequence (looked up) with S22D, K25E
In the case of B3, the figures for the response in series [1], in series [2] and in [3] were 72, 46 and 28, respectively.

B4: Seb1-CID(1-152), Q9UTE3 K124E (protein)
chain: T4 sequence (looked up) with K124E
For B4, the results for the response in [1], in series [2] and in series [3] were 59, 58 and 56, respectively.

B5: Seb1-CID(1-152), Q9UTE3 S22D; K25E; K124E (protein)
chain: T4 sequence (looked up) with S22D, K25E, K124E
Consider B5, for which the response was 22 in series [1], 27 in series [2] and 33 in series [3].

B6: Seb1-CID(1-152), Q9UTE3 Y64K (protein)
chain: T4 sequence (looked up) with Y64K
B6: the response in series [1] came out at 65; in series [2], 40; in series [3] it was 20.

Take {FAM}-YSPTSPSYSPTSPS [FAM-tagged two-repeat non-phosphorylated CTD peptide]: the dissociation constant Kd with Seb1-CID(1-152) is over 1000 µM.

As to AUUAGUAAAA (ssRNA) [FAM-AUUAGUAAAA RNA], the Kd with SUMO-RRM WT amounted to 1.72 ± 0.06 µM; with SUMO-RRM F487A it was 25.6 ± 15.7 µM; in the series with SUMO-RRM R504E, 2.37 ± 0.17 µM; in the series with SUMO-RRM R392E it was 3.33 ± 0.53 µM; in the series with SUMO-RRM F449A, 1.99 ± 0.19 µM; with SUMO-RRM R428E, 2.87 ± 0.85 µM. In addition, the equilibrium dissociation constant (Kd) was found to be 2.49 ± 0.33 µM with SUMO-RRM K402A; 1.84 ± 0.63 µM in [7]; 1.91 ± 0.71 µM with SUMO-RRM R450A; 4.2 ± 0.56 µM with SUMO-RRM S492A; 17.8 ± 27.5 µM in the series with SUMO-RRM R472E.
